Measured values published in the supplement of paper PMC10567573.

B1: KCNG1 (parent)
chain: LFVTVTAVNLSVSTLPSLREEEEQ
B2: SNAP91 (parent)
chain: FGGSFMAPSPSPVTPAQNNLLQPN
B3: IRX6 (parent)
chain: YPCLEKPRIWSLAHTATASAVEGA

Variants of: B1
Test: protein stability index of a GFP-peptide fusion (GPS, HEK-293T) (PSI 1-6); higher = more stable
Settings: c terminus: a fixed tail appended
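Note: lentivirally expressed fusions sorted by FACS into six bins by GFP to DsRed ratio, PSI derived from sequencing read proportions per bin multiplied by bin number.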

Protein stability index of substitutions, site by site:
V8: Q 1.85; D 2.29; N 2.49; K 2.15
L18: V 2.17; R 1.57; A 3.29
N9: T 3.74; Q 2.65
L10: G 2.16; R 3.45; P 2.32; Q 3.77; W 2.88
R19: Q 1.2; D 2.32; K 3.36
F2: Q 2.09; C 1.67; N 2.27; P 4.83; L 1.95
V12: E 2.19; D 1.71; P 1.6; F 2.17; S 1.85; Q 1.4; K 2.44
S11: E 1.72; P 2.02; Y 4.29
A7: D 2.89; P 1.8
E22: I 2.19; P 2.31; K 3.13
E21: V 1.63
S17: E 3.27; F 1.79; G 2.51
V3: C 2.65; G 3.53; H 3.75; D 4.92
S13: D 1.55; L 2.71
P16: C 1.65
V5: Q 3.94; W 2.3; C 2.1
L15: M 2.51; Q 1.05; V 1.76; T 3.77; D 3.09
T4: A 1.37; Y 3.61; H 1.93; K 1.64; D 3.23; G 2.89
Q24: L 1.02
L1: R 3.04; G 3.23; A 1.78; H 3.62; M 1.98; Q 3.71; E 4.32
T14: D 1.52; W 2.87

Variants of: B2
Test: as above
Settings: c terminus: a fixed tail appended

Protein stability index, by site and new letter:
P15: F 2.84; L 1.95; K 1.83; I 2.65; T 2.01; W 1.6; A 1.86; R 2.4; C 4.08; Q 2.27; N 1.79; H 2.27; G 2.3; Y 2.91; V 2.12; D 2.67; M 3.65; E 1.93; S 2.19
M6: R 2.24; V 2.08
F1: N 3.94; I 3.99
S9: R 1.89; M 2.31; E 1.89; W 3.59; Q 1.43; K 1.76; V 1.62
G3: D 2.7; V 2.37; N 3.1; T 2.44
S11: E 2.38; K 1.98; V 3.42; R 1.68; Q 3.14; M 2.83; L 2.84
T14: R 1.54; M 2.4; W 1.95; V 2.2; F 1.79; I 1.7; G 2.08; C 4.16; N 1.89; K 2.84; D 1.29; E 1.31; Q 2.43; L 2.13
A7: H 3; L 1.87; E 2.06; Q 2.59; D 1.91; V 2.54
F5: A 3.83; I 4.03
P8: L 3.22; C 1.64; S 2.89; M 4.32; D 2.25; Q 2.92; W 3.12; A 1.54; T 3.12; R 1.85; H 2; G 2.67; Y 3.9; E 2.24; F 2.53; V 2.41; N 2.42
P10: D 2.72; M 3.19; G 2.18; R 1.13; N 1.51; S 2.49; Q 2.7; E 1.22; W 2.51; V 1.58; K 3.1; F 2.89; Y 2.38; A 4.52; L 2.55; C 2.45; H 2.52
L21: R 2.88
P12: G 1.72; Y 2.09; S 1.27; Q 2.21; H 2.53; D 1.8; I 1.94; L 1.61; K 1.47; T 1.01; N 2.31; V 1.73; E 1.77; A 2; M 2.62; R 2.17; C 2.72; W 1.83; F 1.62
G2: R 3.23; Y 2.53

Variants of: B3
Test: as above
Settings: c terminus: a fixed tail appended

Protein stability index, by site and new letter:
E22: V 2.62; R 2.98; F 3.04; P 2.34; W 1.73; S 1.1; G 3.1; M 3.75; T 2.63; K 2.29; N 3.13; H 2.05; L 2.67; C 3.29; D 2.16
T15: G 1.75; H 3.31; K 3.51; W 2.34; A 2.74; D 2.85; I 1.72; R 3.79; L 1.12; C 3.17; S 2.26
H14: P 2.48; L 3.94; E 1.84; D 2.01; Q 2.52; S 2.18; M 2.34; K 1.66; I 1.41; F 4.18; V 3.43
A18: T 3.02; P 3.41; D 1.78; V 2.84; H 2.15; K 2.59; Y 3; W 2.05; M 3.02; R 3.8; I 3.17; N 2.65
T17: G 3.55; W 2.29; M 2.36; N 2.37; Q 4.21; Y 2.64; E 3.16; K 2; P 2.72; S 1.83; D 2.17; A 1.71; L 1.25
S19: M 2.98; E 1.97; V 2.07; K 1.9; Y 4.1; R 1.91; Q 3.07; I 2.52; N 2.27; F 3.32; W 3.1; D 1.83
A20: L 3.52; H 3.49; T 2.11; N 2.87; K 3.07; M 1.53; I 2.52; E 1.86; F 1.69; Y 4.34; D 2.67
V21: D 1.82; L 1.1; F 3.51; S 1.6; K 1.45; T 2.23; C 1.23; W 3.41; H 2.21; P 3.82; R 2.62; Y 2.29; N 2.73; M 1.82
A13: Y 3.33; V 3.26
A24: M 2.52; Y 3.06; W 2.31; R 2.99; K 3.48; H 3.03; E 2.22; S 1.91; C 2.18; I 3.09; D 2.95; V 3.01
G23: F 2.97; E 2.33; N 2.68; C 1.41; Q 1.25; S 2.13; Y 3.63; L 2.7; V 3.24; I 3.44; A 2.6; T 2.95; W 1.98
A16: W 3.44; V 4.23; D 1.89; E 4.29; C 2.12; K 2.68; F 5.06; S 1.93; Q 2.45; L 1.87; N 3.02; T 3.04; M 3.88; H 1.77; Y 2.99; P 1.53; I 1.94
